According to paper PMC4417169, “Significance of ligand interactions involving Hop2-Mnd1 and the RAD51 and DMC1 recombinases in homologous DNA repair and XX ovarian dysgenesis” (Nucleic Acids Research, 2015):
Numbering of substitutions follows the chain as printed.

B1: human RAD51 (natural protein, UniProt Q06609 1-339, looked up)
chain: MAMQMQLEANADTSVEEESFGPQPISRLEQCGINANDVKKLEEAGFHTVEAVAYAPKKELINIKGISEAKADKILAEAAKLVPMGFTTATEFHQRRSEIIQITTGSKELDKLLQGGIETGSITEMFGEFRTGKTQICHTLAVTCQLPIDRGGGEGKAMYIDTEGTFRPERLLAVAERYGLSGSDVLDNVAYARAFNTDHQTQLLYQASAMMVESRYALLIVDSATALYRTDYSGRGELSARQMHLARFLRMLLRLADEFGVAVVITNQVVAQVDGAAMFAADPKKPIGGNIIAHASTTRLYLRKGRGETRICKIYDSPCLPEAEAMFAINADGVGDAKD
notes: RAD51, human; source: E. coli, purified
B2: (His)6-tagged Mnd1 (natural protein, mouse, UniProt Q8K396 1-205, looked up)
chain: MSKKRGLSGEEKRTRMMEIFFETKDVFQLKDLEKLAPKEKGITAMSVKEVLQSLVDDGMVDCERIGTSNYYWAFPSKALHARKRKLEALNSQLSEGSQKHADLQKSIEKARVGRQETEERAMLAKELSSFRDQRQQLKAEVEKYRECDPQVVEEIREANKVAKEAANRWTDNIFAIKSWAKRKFGFEESKIDKNFGIPEDFDYID
notes: Mnd1, mouse, without Hop2; also called purified Mnd1 alone; source: purified
B3: human DMC1 (natural protein, UniProt Q14565 1-340, looked up)
chain: MKEDQVVAEEPGFQDEEESLFQDIDLLQKHGINVADIKKLKSVGICTIKGIQMTTRRALCNVKGLSEAKVDKIKEAANKLIEPGFLTAFEYSEKRKMVFHITTGSQEFDKLLGGGIESMAITEAFGEFRTGKTQLSHTLCVTAQLPGAGGYPGGKIIFIDTENTFRPDRLRDIADRFNVDHDAVLDNVLYARAYTSEHQMELLDYVAAKFHEEAGIFKLLIIDSIMALFRVDFSGRGELAERQQKLAQMLSRLQKISEEYNVAVFVTNQMTADPGATMTFQADPKKPIGGHILAHASTTRISLRKGRGELRIAKIYDSPEMPENEATFAITAGGIGDAKE
notes: DMC1, human; source: insect cells infected with a recombinant DMC1 baculovirus, purified
B4: Hop2^126-217-Mnd1 (complex, mouse)
chain 1: MQKEIQELKKECAQYTERLKNIKAATNHVTPEEKEKVYRDRQKYCKEWRKRKRMTTELCDAILEGYPKSKKQFFEEVGIETDEDHNVLLPDP
chain 2: B2 chain
notes: Hop2, mouse, residues 126-217; Mnd1, mouse; source: E. coli, purified
B5: Hop2-Mnd1^100-205 (complex, mouse)
chain 1: MSKSRAEAAAGAPGIILRYLQEQNRPYSAQDVFGNLQKEHGLGKAAVVKALDQLAQEGKIKEKTYGKQKIYFADQNQFDTVSDADLHGLDASIVALTAKVQSLQQSCRHMEAELKELTSALTTPEMQKEIQELKKECAQYTERLKNIKAATNHVTPEEKEKVYRDRQKYCKEWRKRKRMTTELCDAILEGYPKSKKQFFEEVGIETDEDHNVLLPDP
chain 2: HADLQKSIEKARVGRQETEERAMLAKELSSFRDQRQQLKAEVEKYRECDPQVVEEIREANKVAKEAANRWTDNIFAIKSWAKRKFGFEESKIDKNFGIPEDFDYID
notes: Hop2, mouse; Mnd1, mouse, residues 100-205; source: E. coli, purified

Experiments:
Settings in all cases: both partners purified
[1] = target: T1, Hop2 (K63A/Y65A/K67A)-Mnd1 (mouse, UniProt O35047 1-217; Q8K396 1-205, K63A | Y65A | K67A); test: pull-down; affinity pulldown of RAD51 with the DNA binding mutants of Hop2-Mnd1; only summarized in Table 1; resin and tag not told
T1 construct: Hop2, mouse; Mnd1, mouse; also called Hop2-KYK-Mnd1; source: E. coli, purified
T1 sequence (looked up) 1: B5 chain 1 with K63A, Y65A, K67A
T1 sequence (looked up) 2: B2 chain

[2] = target: T2, Hop2-Mnd1 (R64A/Y70A/Y71A) (mouse, UniProt O35047 1-217; Q8K396 1-205, R64A | Y70A | Y71A); test: as above
T2 construct: Hop2, mouse; Mnd1, mouse; also called Hop2-Mnd1-RYY; source: E. coli, purified
T2 sequence (looked up) 1: B5 chain 1
T2 sequence (looked up) 2: B2 chain with R64A, Y70A, Y71A

Hop2 (R176A)-Mnd1 = target: T3, Hop2 (R176A)-Mnd1 (mouse, UniProt O35047 1-217; Q8K396 1-205, R176A); test: as above
T3 construct: Hop2, mouse; Mnd1, mouse; source: E. coli, purified
T3 sequence (looked up) 1: B5 chain 1 with R176A
T3 sequence (looked up) 2: B2 chain

Hop2-Mnd1 (KYK+RYY) = target: T4, Hop2-Mnd1 (KYK+RYY) (mouse, UniProt O35047 1-217; Q8K396 1-205, K63A | Y65A | K67A | R64A | Y70A | Y71A); test: as above
T4 construct: Hop2, mouse; Mnd1, mouse; also called Hop2-KYK-Mnd1-RYY; Hop2-KYK/Mnd1-RYY; source: E. coli, purified
T4 sequence (looked up) 1: B5 chain 1 with K63A, Y65A, K67A
T4 sequence (looked up) 2: B2 chain with R64A, Y70A, Y71A

[3] = target: T5, Hop2 (G203N)-Mnd1, MBP-tagged (mouse, UniProt O35047 1-217; Q8K396 1-205, G203N); test: pull-down; amylose resin captures MBP-tagged Hop2-Mnd1 or mutant incubated with RAD51 or DMC1; buffer A without imidazole; 4 C; SDS-PAGE, Coomassie
T5 construct: Hop2, mouse; Mnd1, mouse; also called the G203N mutant; source: E. coli, purified; not shown: MBP, N-terminal, kept
T5 sequence (looked up) 1: B5 chain 1 with G203N
T5 sequence (looked up) 2: B2 chain

human RAD51 [4] = target: B1; test: pull-down; Ni2+-NTA resin captures (His)6-Hop2-Mnd1 or (His)6-Mnd1 (5 uM) incubated with RAD51 (8 uM); buffer A (25 mM Tris-HCl pH 7.5, 10% glycerol, 0.5 mM EDTA, 0.01% Igepal, 10 mM imidazole), 50-250 mM KCl, with or without 2 mM MgCl2 and 2 mM ATP (or other nucleotides); 4 C; SDS-PAGE, Coomassie
human RAD51 [5] = target: B1; test: pull-down; affinity pulldown of RAD51 with truncation mutants of Hop2-Mnd1 (Supplementary Figure S3b, c); resin and tag not told

Binder: B1
- binding result [1]: binds
- binding result [2]: binds
- binding result (Hop2 (R176A)-Mnd1): binds
- binding result (Hop2-Mnd1 (KYK+RYY)): binds
- binding result [3]: binds

Binder: B2
- binding result (human RAD51 [4]): binds

Binder: B3
- binding result [3]: binds

Binder: B4
- binding result (human RAD51 [5]): binds

Binder: B5
- binding result (human RAD51 [5]): binds
